± gives the half width of the 95% confidence interval.
Assays:
[1] = folding stability dG unfold (combined trypsin and chymotrypsin); higher = more stable
Procedure, shortened: (§1)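 Digests were run with trypsin and chymotrypsin at 11 concentrations in threefold dilutions, plus a no-protease condition, on designed mini-proteins in a PA-tagged cDNA display construct. The mini-proteins were under 80 residues, had no cysteine, and were kept only when AlphaFold2 dimer inter-PAE was above 15. After sequencing, Bayesian fitting of the counts gave K50, from which unfolding free energy was derived against a sequence-predicted unfolded-state K50 and a shared folded-state K50, per protease or combined.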

[2] = folding stability dG unfold from chymotrypsin proteolysis; higher = more stable
Procedure, shortened: as §1

[3] = folding stability dG unfold from trypsin proteolysis; higher = more stable
Procedure, shortened: as §1

| Sequence | folding stability dG unfold [1] [kcal/mol] | folding stability dG unfold [2] [kcal/mol] | folding stability dG unfold [3] [kcal/mol] |
| --- | --- | --- | --- |
| SAMKVYKAKVTIVDEEGNLLDEIELEFETEEELKEKVLEELGVSEEEIVEIELSPEVSEEEFEKKLKLESAG [r14_852_JUSTAS] | 0.347 ± 0.14 | 0.776 ± 0.15 | -0.425 ± 0.25 |
| SAMLEEVEERAREIAERLREEYPDVEEFTVELELPLPDGRFLRVTVTIRRERDDEGDTFEVEVDVEEVDSAG [r14_788_TrMRF] | 4.46 ± 0.095 | 4.91 ± 0.13 | 3.47 ± 0.13 |
| SAMLKLEITLPDGTVVEVEIPLERPVPPAGEEEALAAAEAVREAVAAALGLEDAEVTMEVEEVSPEELLSAG [r14_378_JUSTAS] | 1.41 ± 0.2 | 1.03 ± 0.051 | 1.65 ± 0.12 |
| SAMLPSIIIAKAKEAIEKSGKPVPVVIKIPVYKKENGPPVSLEKAKEIFEKLKEAFPDVPIIIELEEPESAG [r14_636_TrMRF] | 0.766 ± 0.048 | 0.539 ± 0.034 | 0.875 ± 0.011 |
| SAMLTILSVETHTLPNGEEIVTVTLKTPDLETLDALLAELGLTGTRDPDDPQVVTITTSREKVQEIKEKSAG [r14_777_JUSTAS] | 4.57 ± 0.3 | 4.71 ± 0.2 | 3.34 ± 0.14 |
| SAMMKAEIVEIKFDPKTKKLTIKFPDGSKLEIKPGETIKIKIKVTVFNEETGKLEEKEITLTLKLPEGLSAG [r14_366_TrROS_Hall] | 2.91 ± 0.43 | 2.96 ± 0.1 | 2.31 ± 0.27 |
| SAMPEKRFYTYEIPIPPGFKADEPFVGTVTLEEKTLPIKIGSIPDVPPDATVRLTVDLDTAEFRVELLPSAG [r14_554_TrMRF] | 1.16 ± 0.2 | 1.3 ± 0.087 | 0.91 ± 0.1 |
| SAMRIEIVRDPETGELVVRVVLPREEAEEAAEELARRLAEAGLEVEVKVVRIEETDGETRVVVEIKVKPSAG [r14_345_TrROS_Hall] | 3.3 ± 0.1 | 2.88 ± 0.061 | 3.74 ± 0.11 |
| SAMRIVVPYRETLRLTGLPEDTPLEEFRERFERIFRRLMERGVRPVRIEIYEIGDERYIVVEIETPGGASAG [r14_158_TrMRF] | 3.62 ± 0.041 | 4.042 ± 0.017 | 2.907 ± 0.019 |
| SAMSEKDMEPIETFELPETNVKIELYYNKKTKKYVIKIKNKKTKKTKTIVIKSKDGKITLEELKKLIKKSAG [r14_948_TrROS_Hall] | 3.61 ± 0.31 | 3.42 ± 0.077 | 2.93 ± 0.24 |
| SAMSLEDMTPEELEELVKELIEKLREELEKEGKTIKPGETIEIEIEVKGKKLKIKITVDKDGNIKIEVESAG [r14_501_TrROS_Hall] | 2.97 ± 0.092 | 3.03 ± 0.084 | 2.87 ± 0.2 |
| SAMSVKTYSSTSVDPKTGKTYTTTTTVTPKPEPPWLVTTTTYLVDPATGTTTLLSTTTTTLDPNDPTLLSAG [r14_939_JUSTAS] | 2.45 ± 0.084 | 2.67 ± 0.11 | 2.11 ± 0.071 |
| SAMTKTETFTFDDVEITVTTTEVTLPNGEKKDVYTLTKYTVDPSTGTTTPSSKTFSSKEEMEAALKASLSAG [r14_500_JUSTAS] | 3.97 ± 0.16 | 4.036 ± 0.04 | 3.6 ± 0.27 |
| SAMTLTLEFENLKDLTEEEIEEALKEAGLPGVKILGIKKTSEKWTITIAYDSSTPKEKIEAAIKKAVAESAG [r14_657_JUSTAS] | 4.56 ± 0.18 | 4.64 ± 0.13 | 5.03 ± 0.35 |
| SAMTLTLEIELDGVRVRLEAELELVLNEDGSLELKLKLKIEVEPLPPPKEVEVEEEEEEVEEVEFLPEESAG [r14_341_TrROS_Hall] | 4.44 ± 0.26 | 4.61 ± 0.28 | 3.82 ± 0.31 |
| SAMTTTTSVDPASGSSTVTTTEIIEKPAGKLPNGTKLPPVKVKKTTTTTYAPNGTKLSTTTTTTPVPLGSAG [r14_246_JUSTAS] | 0.874 ± 0.086 | 0.67 ± 0.11 | 1.01 ± 0.064 |
| SAMTVTSSVTTQPVPDSSDTVTYTNITVTIGNQTVTYTETVTYSSTDPTLRTVTTLLPDGTTVTTTVPVGSA [r9_897_JUSTAS] | 2.18 ± 0.13 | 2.6 ± 0.084 | 1.94 ± 0.1 |
| SAMVEVRIEYDEETGEIRIEVRAEEEGEELTEEEIEELARELAEELGLPVEIKEIRVEKAPEVEEVVLESAG [r14_556_TrROS_Hall] | 0.884 ± 0.3 | 0.757 ± 0.1 | 1.05 ± 0.18 |
| SAMVLKVEEEPFPPNAKREVKEIRKDPNSDNLFKVKIELEKSPDPSVTSAKVITIPPDGSKKVEEKVLESAG [r14_10_JUSTAS] | 0.508 ± 0.59 | 0.47 ± 0.19 | 0.514 ± 0.27 |
| SAMVLRLVVTVTGKIGDSLSTTTITREVSLEEYSEEELEALAEAVADAIRAANPEATVSLSILPEEELESAG [r14_723_JUSTAS] | 2.58 ± 0.097 | 2.565 ± 0.02 | 2.47 ± 0.074 |
| SAMVSVTELPDGGVLATFPLPDGHPATAVFDPADLKPSVAYFPNGLRAVLRVTPDGRVELLAVEDVPPASAG [r14_877_TrMRF] | 0.943 ± 0.052 | 0.963 ± 0.1 | 0.892 ± 0.023 |

| Sequence | folding stability dG unfold [1] [kcal/mol] | folding stability dG unfold [2] [kcal/mol] | folding stability dG unfold [3] [kcal/mol] |
| --- | --- | --- | --- |
| SAMVVTYDPATGKITVNVTLYVEEPLTPEERAALAAAIKAALAAAHPDVDVTVTLHPAPSPEEVEKLAASAG [r14_406_JUSTAS] | 2.47 ± 0.12 | 2.23 ± 0.058 | 2.92 ± 0.14 |
| SAMVYEFPFETEEEAREKAREVLLEKLGASPEEEKVELDIEIEIREDPETGKKLATVTVPKVTVSPKKSSAG [r14_467_JUSTAS] | 0.318 ± 0.086 | 0.411 ± 0.099 | 0.0292 ± 0.11 |
| SAMVYPYLLRVYLPGSGEVVYFPASSLEEAVELLEEVAALPNVNSVDLYTPDGTKVHFLIDVPPEAFEESAG [r14_747_TrMRF] | 2.77 ± 0.066 | 2.891 ± 0.022 | 2.67 ± 0.12 |
| SAMYKIRLKNGEEIELEGMSIEELEKLFPDVELEIEKVEKVPVVKAPSKEEAEELAKKLPPGAKIIVEDSAG [r14_445_TrROS_Hall] | 0.324 ± 0.3 | 0.233 ± 0.36 | 0.287 ± 0.14 |
| SAMYVRITVTFETPDGTRTVTIEIPPSEVEAGKPLSEEELKALAEEIAAKDPNATITEITIERFPESLESAG [r14_373_JUSTAS] | 3.99 ± 0.075 | 3.865 ± 0.037 | 4.29 ± 0.11 |
| SANDAMRKMMENMSPEDMMEMVRPPVPPPPVVTIRVPIEDLPKFLQWLSEEFGVEIEREDGYLYITVTASAG [r14_7_TrROS] | 1.22 ± 0.095 | 1.48 ± 0.034 | 0.623 ± 0.084 |
| SANDKHKYEEEYPYRNPNDPGQPMPFKREREVPVQPPPVITIDADELAKELKEQGEIKIPPDGWIAIPFSAG [r14_582_TrROS] | 3.51 ± 0.49 | 4.1 ± 0.2 | 3.08 ± 0.4 |
| SANIQIMIEDWDPERGWIRISIQVDKGDPDKPITPELVNNIRELFRFRGIEVNIEVHPDGMVNIEIPIPSAG [r14_865_TrROS] | 4.14 ± 0.094 | 4.59 ± 0.051 | 3.39 ± 0.069 |
| SANKNFYIIQIKWEIDGPDGRTLSFMIIVPRDDPDEFLKEAKDFIAEEFGYPIKKIEVDIHRIPPEDFPSAG [r14_104_TrROS] | 3.01 ± 0.17 | 3.16 ± 0.07 | 2.76 ± 0.14 |
| SANMPPGDWKPINIKVKIERPGGKPEFEYPIYKHPDGMIMIFIHFPIPPGAYKIKIEFPGNGKENEFKFSAG [r14_280_TrROS] | 2.29 ± 0.32 | 2.84 ± 0.09 | 1.52 ± 0.058 |
| SANPALYQWVTTDVVLPFETEEEALAAVEALAAARAAATGATVTVSVEVERLPDGLRVRVPVTTLVPLLSAG [r14_626_JUSTAS] | 1.05 ± 0.046 | 0.984 ± 0.099 | 1.05 ± 0.012 |
| SANPGKPVTIEIPVEEIRQKLNEENPDKPLTPSELKDLAKELIQRQGFPFKDVEIKSVNPGNGWIKIKVSAG [r14_303_TrROS] | 0.279 ± 0.5 | -0.538 ± 0.43 | 0.871 ± 0.095 |
| SANPIPLEKANITVSYTSPDGLVVTANITSVTYDPSTGKYTFTFTGTLTDPSTGTTTPVSFTVSTVTLSSAG [r14_825_JUSTAS] | 3.79 ± 0.13 | 4.25 ± 0.099 | 2.68 ± 0.1 |
| SAPIRPGQDLKIEPEIRRYPNGSMSYTYRLEFPNGPTVHVRHTMQRDPEHGKPRHKWDIHLSPKALEAFSAG [r14_842_TrROS] | 1.41 ± 0.07 | 1.37 ± 0.09 | 1.49 ± 0.057 |
| SAPIVIPAKAGSPENVLKAIKEAKELASKGKKVYLPILTKDGPIFFEVDPKTKTIKIYNPKTGEKKDLSSAG [r14_423_TrMRF] | 1.25 ± 0.16 | 1.04 ± 0.07 | 1.45 ± 0.032 |
| SAPKIEILEVDPNRVLIKIDATPEEIEKIVEEIKKKFPGVKVETEKLEGEKKYLIKVIPVPEVPEELKKSAG [r14_600_TrMRF] | 1.1 ± 0.14 | 1.44 ± 0.016 | 0.0352 ± 0.067 |
| SAPKILKVETFPDGSIKVEIPLPETGAIVTITVDPDGNVVVEFYPPKSGKPVRKTIPGKTIEEVLKELGSAG [r14_760_TrMRF] | 1.63 ± 0.12 | 1.83 ± 0.052 | 1.41 ± 0.086 |
| SAPLEQLLEFAEEFAQAYGYRVEIEVYRNGEPKGTYEIPMPKPGQPPVSIMIRIPDPNLYIHVTIYMPRSAG [r14_728_TrROS] | 2.75 ± 0.11 | 3.07 ± 0.041 | 2.16 ± 0.071 |
| SAPLSEEEARQLLEEVAEELERETGASYRVELFRDPATGRWFGRIELPDGRVYTVTYDPATGEVTVTVEASA [r9_9_JUSTAS] | 5.62 ± 0.11 | 5.62 ± 0.069 | 4.25 ± 0.1 |
| SAPPDDWKPVTIPILIPFDSVEDAKEWVIELANELAKKHGWRINIDVDIEPVPNRYYIKIPITIYVPKKSAG [r14_626_TrROS] | 2.47 ± 0.31 | 2.42 ± 0.18 | 2.39 ± 0.19 |
| SAPPKTRTREIEIRFDDYYVRIKITWTKDGNLKLDIEFQGPNPVMREQIKDFLEELNPDFEITDIEVYRSAG [r14_611_TrROS] | 2.38 ± 0.3 | 2.67 ± 0.057 | 2.13 ± 0.14 |
